The values below come from the supplement of paper PMC10126150.

For this series, the system named is ATP. Put plainly: switch fluorescence ratio, 500 uM ATP over buffer (Cy3 cluster intensity, sum of 5 cycles each) (fold (ratio)); higher = stronger signal-on switching upon ATP binding; sequences stand for … in TCGTCGGCAGCGTCAGATGTGTATAAGAGACAGTTTTTTTTTTTTTTTTTTTTTTTTT…TC. Conditions: aptamer strand: ATP DNA aptamer (quencher-CACCTGGGGGAGTATTGCGGAGGAAGG + anchor), 100 nM annealed; ATP concentration: 500 uM. The essentials: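 The quencher-labelled ATP aptamer, at 100 nM, was annealed to Cy3-labelled switching-strand clusters on a modified Illumina MiSeq flow-cell. The clusters were imaged in selection buffer, then after 15 min with 500 uM ATP at 22 °C, and this buffer/ATP cycle ran five times with NaOH stripping and re-annealing between runs. Per-cluster fluorescence ratios, summed target-cycle over summed buffer-cycle Cy3 intensity, were averaged per switch-domain sequence. Clusters outside 100-1000 RFU were excluded.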

± gives the standard deviation of the averaged measurements.
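Further: ATP exposure 15 min at 22 °C before imaging.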

With TATGGGTGCC, the switch fluorescence ratio turned out to be 0.9771 ± 0.0042.
As to TATGGGTTCT, the switch fluorescence ratio came to 1 ± 0.031.
Turning to TATGGTAGGC, the switch fluorescence ratio was 0.9857 ± 0.0042.
For TATGGTCGC, the switch fluorescence ratio stood at 1.03 ± 0.026.
Take TATGGTGC: the switch fluorescence ratio was found to be 1.06 ± 0.015.
For TATGTAAACA, the switch fluorescence ratio is 1 ± 0.025.
As for TATGTATTTT, the switch fluorescence ratio amounted to 1.02 ± 0.055.
With TATGTCAGAG, the switch fluorescence ratio was 1.01 ± 0.039.
On to TATGTCGGCC, for which the switch fluorescence ratio was found to be 0.975 ± 0.069.
In the case of TATGTGAACA, the switch fluorescence ratio turned out to be 0.991 ± 0.025.
For TATGTGACGA, the switch fluorescence ratio is 1 ± 0.026.
With TATGTGCTTG, the switch fluorescence ratio was 0.991 ± 0.021.
Regarding TATGTGGAGT, the switch fluorescence ratio was 0.9924 ± 0.0089.
Consider TATGTGGCGG, for which the switch fluorescence ratio came out at 0.974 ± 0.022.
Turning to TATGTGGGGA, the switch fluorescence ratio was found to be 1.02 ± 0.027.
For TATGTGGGGG, the switch fluorescence ratio stood at 1 ± 0.016.
The same measure for TATGTGTTTC: 1.18 ± 0.25; for TATGTTACCT: 1.22 ± 0.05; for TATGTTGAGG: 1 ± 0.035.
As for TATGTTTATC, the switch fluorescence ratio worked out at 0.975 ± 0.055.
On to TATTAAAATT, for which the switch fluorescence ratio was found to be 1.008 ± 0.0077.
Consider TATTAAACGA, for which the switch fluorescence ratio is 1.019 ± 0.0063.
On to TATTAAAGAC, for which the switch fluorescence ratio worked out at 1.04 ± 0.1.
As for TATTAAATTC, the switch fluorescence ratio worked out at 0.984 ± 0.039.
In the case of TATTAATAGT, the switch fluorescence ratio turned out to be 1.01 ± 0.024.
Turning to TATTACAAGT, the switch fluorescence ratio turned out to be 1.01 ± 0.015.
The same measure for TATTACCGTT: 1.006 ± 0.0076.
On to TATTACTCAG, for which the switch fluorescence ratio is 1.03 ± 0.025.
Consider TATTAGGGAC, for which the switch fluorescence ratio was 0.994 ± 0.032.
Regarding TATTAGGGCA, the switch fluorescence ratio came out at 0.9717 ± 0.0097.
For the sequence TATTAGGGTC, the switch fluorescence ratio was found to be 1.02 ± 0.02.
Turning to TATTAGGTGT, the switch fluorescence ratio was 1.04 ± 0.04.
As for TATTAGGTTT, the switch fluorescence ratio is 0.991 ± 0.018.
Then TATTAGTATG, with 0.991 ± 0.047; and TATTATACCT, with 1.29 ± 0.053.
TATTATTTGG: the switch fluorescence ratio was 1 ± 0.034.
The same measure for TATTCAATGG: 1.02 ± 0.074; for TATTCAGAAA: 1.02 ± 0.054.
As for TATTCAGAGG, the switch fluorescence ratio is 0.974 ± 0.02.
Regarding TATTCAGGCA, the switch fluorescence ratio amounted to 1.01 ± 0.041.
For TATTCGCTTT, the switch fluorescence ratio stood at 1.33 ± 0.48.
Consider TATTCTGGAT, for which the switch fluorescence ratio is 0.993 ± 0.026.
Then TATTCTGGGA, with 0.9918 ± 0.0078; and TATTGAAGGT, with 1.026 ± 0.0075.
In the case of TATTGAGACT, the switch fluorescence ratio was 0.989 ± 0.004.
Then TATTGAGAGC, with 1.01 ± 0.064; and TATTGCTACT, with 1.0114 ± 6.4e-05; and TATTGGAACG, with 0.99979 ± 0.0003.
Regarding TATTGGCAGA, the switch fluorescence ratio was found to be 1.008 ± 0.01.
Regarding TATTGGCGCT, the switch fluorescence ratio was determined as 0.984 ± 0.018.
Consider TATTGGGCGG, for which the switch fluorescence ratio is 1.01 ± 0.045.
In the case of TATTGGGCTA, the switch fluorescence ratio was 0.993 ± 0.044.
In the case of TATTGGGTTT, the switch fluorescence ratio was determined as 0.996 ± 0.022.
As for TATTGGTAAA, the switch fluorescence ratio stood at 0.997 ± 0.036.
Consider TATTGGTAGC, for which the switch fluorescence ratio stood at 0.984 ± 0.025.
Consider TATTGGTATG, for which the switch fluorescence ratio worked out at 1 ± 0.017.
As for TATTGGTCGG, the switch fluorescence ratio is 0.993 ± 0.036.
On to TATTGGTTTT, for which the switch fluorescence ratio is 1 ± 0.011.
Regarding TATTGTGAGT, the switch fluorescence ratio came out at 0.996 ± 0.057.
Take TATTGTGGGG: the switch fluorescence ratio came out at 1 ± 0.044.
Consider TATTGTGTTC, for which the switch fluorescence ratio was 0.9965 ± 0.0035.
As for TATTGTTAGG, the switch fluorescence ratio stood at 1.01 ± 0.027.
With TATTTAAAGG, the switch fluorescence ratio came to 0.986 ± 0.02.
As for TATTTAACAC, the switch fluorescence ratio came to 1.1 ± 0.12.
Regarding TATTTAATAG, the switch fluorescence ratio is 1.004 ± 0.0028.
With TATTTAGGGC, the switch fluorescence ratio turned out to be 1.04 ± 0.052.
Regarding TATTTATAAG, the switch fluorescence ratio came to 0.96 ± 0.015.
On to TATTTATGCG, for which the switch fluorescence ratio was 1.021 ± 0.0091.
TATTTATTGG: the switch fluorescence ratio amounted to 0.999 ± 0.012.
With TATTTATTTT, the switch fluorescence ratio came to 1.01 ± 0.03.
For TATTTCATGT, the switch fluorescence ratio stood at 1.02 ± 0.044.
TATTTCATTC: the switch fluorescence ratio came out at 1.03 ± 0.041.
Regarding TATTTCGGGT, the switch fluorescence ratio is 1.01 ± 0.068.
As for TATTTCTGCT, the switch fluorescence ratio came to 1.04 ± 0.033.
Take TATTTCTGTA: the switch fluorescence ratio was 1.03 ± 0.019.
On to TATTTCTTTG, for which the switch fluorescence ratio was determined as 0.979 ± 0.055.
Consider TATTTGAAGT, for which the switch fluorescence ratio was found to be 0.9885 ± 0.0028.
On to TATTTGAGTC, for which the switch fluorescence ratio was found to be 0.972 ± 0.021.
TATTTGCTGT: the switch fluorescence ratio is 1.001 ± 0.001.
The same measure for TATTTGGGAT: 1 ± 0.002.
TATTTGGGGT: the switch fluorescence ratio amounted to 0.999 ± 0.027.
Take TATTTGGTTA: the switch fluorescence ratio was found to be 1.024 ± 0.006.
The same measure for TATTTTAGTT: 1.02 ± 0.023; for TATTTTATGG: 0.998 ± 0.025; for TATTTTATTT: 1 ± 0.018.
With TATTTTCACT, the switch fluorescence ratio turned out to be 1.05 ± 0.11.
For TATTTTCAGA, the switch fluorescence ratio was 1.04 ± 0.014.
TATTTTGCGG: the switch fluorescence ratio was found to be 0.987 ± 0.035.
On to TATTTTGTGC, for which the switch fluorescence ratio worked out at 1.02 ± 0.012.
Consider TATTTTTAGC, for which the switch fluorescence ratio was found to be 1 ± 0.03.
Regarding TATTTTTCAG, the switch fluorescence ratio was 1.03 ± 0.015.
Then TATTTTTTA, with 1.019 ± 0.0089; and TCAAAAAATG, with 1.01 ± 0.042; and TCAAAATTAT, with 1.02 ± 0.043.
Turning to TCAAAATTGG, the switch fluorescence ratio worked out at 1.004 ± 0.0082.
As to TCAAACGCTT, the switch fluorescence ratio worked out at 1.12 ± 0.15.
As for TCAAAGCGTT, the switch fluorescence ratio came out at 0.986 ± 0.031.
Take TCAAAGTCGA: the switch fluorescence ratio was found to be 0.976 ± 0.045.
In the case of TCAAATAATC, the switch fluorescence ratio was 1.01 ± 0.03.
TCAAATCCTG: the switch fluorescence ratio stood at 1.05 ± 0.047.
TCAAATGAAT: the switch fluorescence ratio worked out at 0.994 ± 0.05.
Turning to TCAAATGTGC, the switch fluorescence ratio stood at 1.02 ± 0.033.
The same measure for TCAAATTTTT: 0.998 ± 0.045.
For TCAACGAAGA, the switch fluorescence ratio was 1.01 ± 0.018.
As for TCAACTTTTG, the switch fluorescence ratio is 0.9856 ± 0.0022.
Regarding TCAAGAGTTC, the switch fluorescence ratio came to 1.01 ± 0.06.
In the case of TCAAGGCGAT, the switch fluorescence ratio was 1.09 ± 0.042.
Consider TCAAGGGGAG, for which the switch fluorescence ratio came out at 1.06 ± 0.067.
With TCAAGGTATT, the switch fluorescence ratio stood at 1 ± 0.034.
Consider TCAAGGTGGG, for which the switch fluorescence ratio worked out at 0.998 ± 0.021.
Take TCAAGTGCTT: the switch fluorescence ratio was determined as 0.9688 ± 0.0071.
Take TCAAGTTAGT: the switch fluorescence ratio was found to be 0.985 ± 0.026.
The same measure for TCAAGTTCTT: 1.03 ± 0.031; for TCAAGTTGGC: 0.998 ± 0.09; for TCAATAAAGT: 0.961 ± 0.014.
Take TCAATAATGA: the switch fluorescence ratio turned out to be 1.02 ± 0.027.
Then TCAATAGCCG, with 1.12 ± 0.14.
With TCAATGATAT, the switch fluorescence ratio was determined as 1.02 ± 0.019.
The same measure for TCAATGGGCT: 0.9899 ± 0.0092.
With TCAATGTGGC, the switch fluorescence ratio was found to be 1.04 ± 0.036.
